Results reported in US20150044245A1, “PARTIAL MHC CONSTRUCTS AND METHODS OF USE” (Oregon Health & Science University, priority 2012, published 2015).
Like-named read-outs stand apart in the source and are kept apart here.

Tests used:
[1] = target: T1, CD74 (Mus musculus, UniProt P04441); test: Coimmunoprecipitation of FITC-labeled constructs with CD74; type: binding; details: FITC-labeled construct, bead-immunopurified CD74
T1 construct: DR*1501-Tg splenocytes were biotinylated and lysed as described above and CD74 was immunoprecipitated overnight; endogenous in cells; host or cells: splenocytes of DR*1501-Tg mice (surface-biotinylated, lysed in 1% CHAPS/TEN; CD74 captured on Protein L / ln-1 beads)
T1 sequence (P04441 1-215 isoform P04441-2): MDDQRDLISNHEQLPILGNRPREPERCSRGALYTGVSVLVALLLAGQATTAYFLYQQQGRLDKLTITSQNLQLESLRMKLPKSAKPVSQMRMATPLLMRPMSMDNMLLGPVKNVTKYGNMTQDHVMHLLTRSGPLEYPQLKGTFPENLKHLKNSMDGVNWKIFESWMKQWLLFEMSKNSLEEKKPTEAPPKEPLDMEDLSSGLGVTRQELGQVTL
Description: For immunoprecipitation experiments, antibody TU39 (BD Pharmingen) was pre-bound to bead-conjugated Protein A for 2 hours in ice-cold TEN-TX100 or TEN-CHAPS followed by RTL binding to these complexes. Lysate (previously pre-cleared with bead-conjugated Protein A) was added to the tube and binding was carried out overnight at 4° C. with soft orbital shaking Samples were extensively washed with TEN buffer and the appropriate detergent. For CD74 immunoprecipitation, ln-1 mAb was adsorbed to bead-conjugated Protein L as described above and pre-cleared lysate was added to this mixture. When necessary, bound material was eluted by boiling the immune complexes in electrophoresis sample buffer and analyzed by SDS-PAGE and Western blot.
(§1) For direct binding of RTL constructs, Protein-L/ln-1/CD74 complexes were prepared as described above. Labeled ligand constructs were incubated for 4 hours at 4° C. in 1% CHAPS in TEN buffer and free ligand was removed by extensive washing. Elution of bound proteins was carried out as described above and the eluate was analyzed by SDS-P AGE. […] In all assays involving fluorescent labeling, the chromophore was detected by scanning at the appropriate wavelength using a Molecular Imager® FX scanner (Bio-Rad) and the fluorescence intensity was determined using Quantity One® software (Bio-Rad) associated with the imager.

[2] = target: T1, CD74; test: Competition with labeled RTL1000 for binding to immunoprecipitated CD74; details: unlabeled competitor
Description: as §1

[3] = target: T2, CD74 (Mus musculus, UniProt P04441); test: CD74 cell-surface expression on CD11b+ monocytes in vitro (FACS); type: cell-based; details: naïve CD11b+ monocytes, 1 hour at 37° C.
T2 construct: endogenous in cells; host or cells: CD11b+ monocytes of DR2 (DR*1501)-Tg mice: naive blood cells in vitro; blood, spleen and spinal cord cells of treated EAE mice
T2 sequence (P04441 1-279): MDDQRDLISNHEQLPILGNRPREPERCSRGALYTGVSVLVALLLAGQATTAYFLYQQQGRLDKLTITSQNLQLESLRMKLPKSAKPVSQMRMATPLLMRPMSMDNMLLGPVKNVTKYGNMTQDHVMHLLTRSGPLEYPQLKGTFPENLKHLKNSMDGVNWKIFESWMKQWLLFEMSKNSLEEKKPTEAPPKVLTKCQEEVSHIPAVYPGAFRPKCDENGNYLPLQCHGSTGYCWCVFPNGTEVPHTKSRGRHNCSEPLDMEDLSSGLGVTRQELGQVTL
Description: Analysis of naive DR2 PBMC subtypes was preformed using four-color (fluorescein isothiocyanate (FITC), phycoerythrin (PE), propidium iodide, allophycocyanin) flow cytometry. Blood was collected from naive DR2 mice through cardiac exsanguination into 1X PBS/EDTA. After washing blood in 1X PBS, the red blood cells were lysed with 1X RBC lysis buffer (eBioscience, Inc., San Diego, Calif.) followed by two washes in RPMI. One million cells were incubated in RPMI with 1 μg unlabeled pDR2, 1 μg pDR2FITC, or 1 μg Fab Neutralized pDR2FITC for one hour at 37° C. For samples assessing Fab neutralization of pDR2 binding, pDR2s were incubated with 1:1 molar ratio of Fab1B11 or FabD2 for two hours at room temperature prior to incubation with cells, pDR2 incubation was followed directly by a 30 minute incubation at 4° C. with CD3 PE (ebioscience, Inc., San Diego, Calif.), CD74 PE (Santa Cruz Biotechnology, Inc., Santa Cruz, Calif.), or CD11b PE, CD11b allophycocyanin, CD11c allophycocyanin, CD19 allophycocyanin (BD Pharmingen, San Diego, Calif.). Antibodies and pDR2 were thoroughly removed by two additional washes in 1X PBS/0.5% BSA staining media. Cells were resuspended in staining media containing propidium iodide and immediately analyzed with a FACSCALIBUR™ using FCS EXPRESS™ software (BD Biosciences, San Jose, Calif.). […]

[4] = tested on: mMOG-35-55-induced EAE in DR*1501-Tg mice; details: for effect on EAE (in words): mMOG-35-55-induced EAE
[5] = target: MHC class II from DR*1501-Tg mice; test: Direct binding of FITC-labeled constructs to MHC class II immuno-adsorbed from CD74-depleted lysate; set-up: species or system mouse; details: FITC-labeled ligand, read-out: MHC Class II One binding site KD
Description: (§2) In order to test ligand binding to the separate components of the RTL receptor, DR*1501-Tg splenocytes were biotinylated and lysed as described above and CD74 was immunoprecipitated overnight at 4° C. with the anti-CD74 monoclonal antibody ln-1. Immune complexes (Protein L-beads/ln-1/CD74) were analyzed for their ability to bind FITC-labeled pDR2RTL constructs by performing a direct binding saturation with increasing concentration of the different constructs (0 to 10 nM). Binding was carried out for 4 hours at 4° C. with gentle shaking and in the presence of 1% CHAPS in TEN buffer. Afterwards the complexes were washed thoroughly with 1% CHAPS/TEN and once with only TEN buffer to remove excess detergent. Bound proteins were eluted in 2% SDS electrophoresis sample buffer at 90° C. for 6 to 8 minutes and beads were sedimented. After the supernatant was collected and proteins separated using 10-20% SDS-PAGE, the gel was scanned for FITC chromophore and quantified by densitometry. Ligand concentration was plotted versus the fluorescence intensity of the bands and the curve generated was fit to one or two binding sites with the GraphPad Prism® Software. […] Direct binding to saturating concentrations of the pDR2 constructs was carried out and analyzed as described above.

[6] = tested on: MBP-85-99-induced EAE in MBP-TCR/DR2-Tg mice
Description: HLA-DR2 positive male and female mice between 8 and 12 weeks of age were immunized subcutaneously at four sites on the flanks with 0.2 ml of an emulsion of 200 μg immunogenic peptide and complete Freund's adjuvant containing 400 μg of heat-killed Mycobacterium tuberculosis H37RA (Difco, Detroit, Mich.) (Vandenbark et al, J Immunol 171:127-133, 2003; Buenafe et al, Immunology 130:114-124, 2010). In addition, mice were given pertussis toxin (Ptx) from List Biological Laboratories (Campbell, Calif.) on days 0 and 2 post-immunization (75 ng and 200 ng per mouse, respectively). Immunized mice were assessed daily for clinical signs of EAE on a 6 point scale of combined hind limb and forelimb paralysis scores. For hind limb scores: 0=normal; 0.5=limp tail or mild hind limb weakness (e.g., a mouse cannot resist inversion after a 90° turn of the base of the tail); 1=limp tail and mild hind limb weakness; 2=limp tail and moderate hind limb weakness (e.g., an inability of the mouse to rapidly right itself after inversion); 3=limp tail and moderately severe hind limb weakness (e.g., inability of the mouse to right itself after inversion and clear tilting of hind quarters to either side while walking); 4=limp tail and severe hind limb weakness (hind feet can move but drag more frequently than face forward); 5=limp tail and paraplegia (no movement of hind limbs). Front limb paralysis scores are either 0.5 for clear restriction in normal movement or 1 for complete forelimb paralysis. The combined score is the sum of the hind limb score and the forelimb score.
(§3) Rarely, there was mortality of HLA-DR2 mice with severe EAE and in these cases, mice were scored as a 6 for the remainder of the experiment. Mean EAE scores and standard deviations for mice grouped according to initiation of RTL or vehicle treatment were calculated for each day and summed for the entire experiment (Cumulative Disease Index, CDI, represents total disease load). Daily mean scores were analyzed by a two-tailed Mann Whitney U test for nonparametric comparisons between vehicle and pDR2 treatment groups. Mean CDIs were analyzed by a one way ANOVA with Tukey post-test, and a nonparametric one way Kruskal-Wallis ANOVA with Dunn's multiple comparisons post-test to confirm significance between all groups.
(§4) pDR2 constructs (Table 3) were injected subcutaneously daily for 5 days at the indicated doses to treat EAE induced in HLA-DR2-Tg and MBP-TCR/DR2-Tg mice and clinical signs were scored as described above. […] Fab1B11 alone in vehicle was run as a negative control.

[7] = tested on: CD80; test: CD80 expression on CD11b+ monocytes from spinal cord of treated EAE mice; type: in vivo, mouse; details: day 15 post-immunization
Description: EAE was induced in mice by immunization with mMOG-35-55. At disease onset, the mice were treated with one of the following constructs: (i) pDR2 with covalently bound mMOG-35-55 (100 μg), (ii) pDR2 without peptide (1000 μg), (iii) DR-α1 (750 μg), or (iv) vehicle alone. The constructs were administered subcutaneously for two sequential days. On day 15 post-immunization, mice were sacrificed and spinal cords were harvested and pooled for each group. Isolated cells were stained for CD74, CD11b, CD80, ICAM, and HLA-DR expression and analyzed by FACS.

[8] = tested on: hMOG-35-55-induced EAE in DR*1502-Tg mice; details: treated at disease onset
Description: In addition, mice were given pertussis toxin (Ptx) from List Biological Laboratories (Campbell, Calif.) on days 0 and 2 post-immunization (75 ng and 200 ng per mouse, respectively). Immunized mice were assessed daily for clinical signs of EAE on a 6 point scale of combined hind limb and forelimb paralysis scores. For hind limb scores: 0=normal; 0.5=limp tail or mild hind limb weakness (e.g., a mouse cannot resist inversion after a 90° turn of the base of the tail); 1=limp tail and mild hind limb weakness; 2=limp tail and moderate hind limb weakness (e.g., an inability of the mouse to rapidly right itself after inversion); 3=limp tail and moderately severe hind limb weakness (e.g., inability of the mouse to right itself after inversion and clear tilting of hind quarters to either side while walking); 4=limp tail and severe hind limb weakness (hind feet can move but drag more frequently than face forward); 5=limp tail and paraplegia (no movement of hind limbs). Front limb paralysis scores are either 0.5 for clear restriction in normal movement or 1 for complete forelimb paralysis. The combined score is the sum of the hind limb score and the forelimb score.
as §3, §4

[9] = target: T1, CD74; test: Direct binding of FITC-labeled constructs to immuno-adsorbed CD74; details: FITC-labeled ligand, immuno-adsorbed CD74, 4 hours at 4° C., 1% CHAPS; read-out: CD74 One binding site KD
Description: as §2

[10] = MBP-TCR/DR2-Tg mice, treated for five days following onset
[11] = DR*1501-Tg mice, mMOG-35-55/CFA/Ptx EAE, treated at disease onset

B1: DR-α1: construct comprising DR-α1 domain alone (with no DR2-β1 domain or peptide) (protein)
chain: IKEEHVIIQAEFYLNPDQSGEFMFDFDGDEIFHVDMAKKETVWRLEEFGRFASFEAQGALANIAVDKANLEIMTKRSNYTPITN
[1]
  coimmunoprecipitation with CD74 (in words): coimmunoprecipitated with CD74
[2]
  competition with pDR2/hMOG-35-55 for binding to CD74 (in words): competed with pDR2/hMOG-35-55 for binding to CD74
[3]
  CD74 expression versus construct binding/concentration (in words): inverse relationship between pMHC concentration and CD74 expression
[4]; 100 μg daily X2 (Table 12)
  CDI: 32.9 ± 7.8
  Incidence: 4/4
  Mortality: 0
  Onset: 10.0 ± 1.2
  Peak: 2.6 ± 0.5
[4]; 300 μg daily X2 (Table 12)
  CDI: 24.1 ± 10.3
  Incidence: 11/11
  Mortality: 0
  Onset: 9.5 ± 0.8
  Peak: 2.3 ± 0.6
[4]; 500 μg daily X2 (Table 12)
  CDI: 20.7 ± 12.7
  Incidence: 10/10
  Mortality: 0
  Onset: 9.6 ± 0.7
  Peak: 2.5 ± 0.7
[4]; 1000 μg daily X2 (Table 12)
  CDI: 21.1 ± 9.9
  Incidence: 6/6
  Mortality: 0
  Onset: 10.7 ± 1.0
  Peak: 2.3 ± 0.4
[4]
  effect on EAE (in words): lower than those treated with vehicle alone
[5]
  Kd: > 0.01 µM

B2: RTL302-5D: Human HLA DR2 (DRB1*1501/DRA*0101) β1α1 domains (V102D, I104D, A106D, F108D, L110D), no peptide (protein)
chain: MGDTRPRFLWQPKRECHFFNGTERVRFLDRYFYNQEESVRFDSDVGEFRAVTELGRPDAEYWNSQKDILEQARAAVDTYCRHNYGVVESFTVQRRVIKEEHDIDQDEDYDNPDQSGEFMFDFDGDEIFHVDMAKKETVWRLEEFGRFASFEAQGALANIAVDKANLEIMTKRSNYTPITN
[6]; MBP-85-99-induced EAE
  effect on EAE (in words): ineffective at treating EAE
[6]; [10]
  CDI: 43.3 ± 12.0
  Incidence: 6/6
  Mortality: 0
  Onset: 17.5 ± 5.0
  Peak: 3.7 ± 0.8
[7]
  CD80 expression (in words): decreased
[1]
  coimmunoprecipitation with CD74 (in words): also coimmunoprecipitated with CD74, but at much lower levels
[8]; cumulative disease index
  CDI: 36.8 ± 7.1
[8]; hMOG-35-55/CFA/Ptx EAE
  Incidence: 6/6
  Onset: 15.0 ± 1.7
[8]; peak clinical EAE score
  Peak: 2.9 ± 0.5
[8]
  Mortality: 0
[9]
  Kd: > 0.01 µM
[4]; 100 μg x 5 (Table 11)
  CDI: 43.1 ± 10.6
  Incidence: 9/9
  Mortality: 0
  Onset: 11.7 ± 1.1
  Peak: 3.3 ± 0.9
[4]; 1 mg x 2 (Table 11)
  CDI: 34.2 ± 6.2
  Incidence: 3/3
  Mortality: 0
  Onset: 9.0 ± 0.0
  Peak: 2.8 ± 0.3
[4]; [11]
  Incidence: 9/9
  Onset: 11.7 ± 1.1
[4]; DR*1501-Tg mice, treated at disease onset
  Mortality: 0
[4]; cumulative disease index, DR*1501-Tg mice, treated at disease onset
  CDI: 42.9 ± 10.7
[4]; listed as pDR2/no peptide
  effect on EAE (in words): significant reduction of daily and cumulative EAE scores compared to treatment with vehicle
[4]; listed as pDR2 without peptide
  effect on EAE (in words): lower than those treated with vehicle alone
[4]; peak clinical EAE score, DR*1501-Tg mice, treated at disease onset
  Peak: 3.3 ± 0.9
[5]
  Kd: > 0.01 µM
